Like-named read-outs stand apart in the source and are kept apart here.
Key:
[1] = molecular target: T1, human IL-36R full-length protein stably expressed on CHO-K1 cells (human, UniProt Q9HB29 20-575); assay: FACS, CHO-K1 cells overexpressing human IL-36R
T1 construct: FlpIn CHO-K1 line expressing the full-length protein; also called human IL-36R on the surface of CHO-K1 cells; CHO-K1 cells overexpressing human IL-36R
T1 sequence: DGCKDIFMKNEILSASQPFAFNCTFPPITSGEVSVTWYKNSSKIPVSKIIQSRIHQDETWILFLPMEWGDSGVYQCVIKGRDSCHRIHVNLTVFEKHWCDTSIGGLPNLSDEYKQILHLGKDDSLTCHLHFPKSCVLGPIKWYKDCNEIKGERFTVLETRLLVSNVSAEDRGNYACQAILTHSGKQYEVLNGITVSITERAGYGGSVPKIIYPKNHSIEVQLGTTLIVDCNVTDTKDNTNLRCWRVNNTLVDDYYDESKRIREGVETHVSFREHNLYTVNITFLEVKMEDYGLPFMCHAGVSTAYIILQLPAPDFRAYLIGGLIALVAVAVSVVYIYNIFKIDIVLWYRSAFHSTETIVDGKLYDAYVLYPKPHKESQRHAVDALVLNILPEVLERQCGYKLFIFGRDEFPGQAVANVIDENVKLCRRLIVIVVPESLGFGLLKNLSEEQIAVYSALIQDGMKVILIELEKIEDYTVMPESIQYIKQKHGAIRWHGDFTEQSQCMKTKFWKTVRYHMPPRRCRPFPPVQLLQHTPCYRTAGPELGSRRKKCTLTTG

[2] = molecular target: T2, IL-36R on human skin squamous cell line A431 (human, UniProt Q9HB29 20-575); assay: cell-based or functional assay
T2 sequence (looked up): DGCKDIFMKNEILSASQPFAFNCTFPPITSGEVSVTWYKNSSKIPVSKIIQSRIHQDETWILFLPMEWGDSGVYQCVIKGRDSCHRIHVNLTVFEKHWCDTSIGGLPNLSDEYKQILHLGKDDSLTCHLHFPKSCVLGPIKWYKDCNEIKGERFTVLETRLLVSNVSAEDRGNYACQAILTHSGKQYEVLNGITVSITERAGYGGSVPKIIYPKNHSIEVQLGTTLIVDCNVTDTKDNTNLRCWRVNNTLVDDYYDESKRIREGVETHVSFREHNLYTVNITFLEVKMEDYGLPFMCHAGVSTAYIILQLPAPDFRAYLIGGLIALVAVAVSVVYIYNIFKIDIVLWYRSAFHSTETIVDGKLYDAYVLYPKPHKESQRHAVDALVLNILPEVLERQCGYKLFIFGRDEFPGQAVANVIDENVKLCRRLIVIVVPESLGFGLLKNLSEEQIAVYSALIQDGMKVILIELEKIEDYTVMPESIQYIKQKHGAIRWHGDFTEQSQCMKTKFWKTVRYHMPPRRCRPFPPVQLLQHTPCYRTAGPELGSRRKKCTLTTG

[3] = molecular target: T3, human IL-23 protein (ACROBiosystems, ILB-H52W5) (human, UniProt Q9NPF7 20-189; P29460 23-328); assay: cell-based or functional assay
T3 sequence (looked up) 1: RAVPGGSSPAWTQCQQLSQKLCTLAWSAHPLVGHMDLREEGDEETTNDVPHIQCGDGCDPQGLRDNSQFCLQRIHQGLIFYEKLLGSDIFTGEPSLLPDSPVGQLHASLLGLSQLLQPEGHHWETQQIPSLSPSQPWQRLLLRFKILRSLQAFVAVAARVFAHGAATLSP
T3 sequence (looked up) 2: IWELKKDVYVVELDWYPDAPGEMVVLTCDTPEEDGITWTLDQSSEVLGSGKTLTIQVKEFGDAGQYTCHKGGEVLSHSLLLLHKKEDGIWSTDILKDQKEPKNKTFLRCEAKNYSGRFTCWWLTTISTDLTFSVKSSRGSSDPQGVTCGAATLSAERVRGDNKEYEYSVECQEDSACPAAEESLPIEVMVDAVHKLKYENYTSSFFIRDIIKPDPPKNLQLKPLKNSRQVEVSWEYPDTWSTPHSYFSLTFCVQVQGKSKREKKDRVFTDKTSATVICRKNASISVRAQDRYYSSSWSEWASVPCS

[4] = molecular target: T3, human IL-23 protein (ACROBiosystems, …); assay: cell-based or functional assay; remark: listed apart in the source
[5] = molecular target: T3, human IL-23 protein (ACROBiosystems, …); assay: SPR (Biacore 8K), antibody captured by anti-human IgG Fc, IL-23 as analyte
[6] = molecular target: T3, human IL-23 protein (ACROBiosystems, …); assay: ELISA, human IL-23 coated
[7] = molecular target: T4, Human IL-36R protein (His + Avi Tag), Kactus IL1-HM4L2 (human, UniProt Q9HB29 20-335); assay: SPR (Biacore 8K), antibody captured by anti-human IgG Fc, IL-36R as analyte
T4 construct: Bought protein; also called human IL-36R antigen protein; Human IL-36R antigen
T4 sequence: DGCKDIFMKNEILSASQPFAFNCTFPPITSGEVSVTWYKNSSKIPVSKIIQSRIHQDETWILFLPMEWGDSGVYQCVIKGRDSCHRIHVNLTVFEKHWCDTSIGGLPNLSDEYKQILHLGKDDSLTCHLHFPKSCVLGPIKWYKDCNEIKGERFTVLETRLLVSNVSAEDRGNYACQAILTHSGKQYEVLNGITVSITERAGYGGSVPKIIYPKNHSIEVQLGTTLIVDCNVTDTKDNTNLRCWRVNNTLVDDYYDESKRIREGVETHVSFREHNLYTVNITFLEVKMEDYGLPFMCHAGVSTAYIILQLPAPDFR

[8] = molecular target: T3, human IL-23 protein (ACROBiosystems, …); assay: cell-based or functional assay; remark: listed apart in the source
[9] = molecular target: T5, human IL-23 protein (Sino Biological, CT048-H08H) (human, UniProt Q9NPF7 20-189; P29460 23-328); assay: competition ELISA, IL-23R coated, biotinylated IL-23 preincubated with antibody
T5 construct: Detected with Anti-His-HRP in the ELISA, so it carries a His tag
T5 sequence (looked up) 1: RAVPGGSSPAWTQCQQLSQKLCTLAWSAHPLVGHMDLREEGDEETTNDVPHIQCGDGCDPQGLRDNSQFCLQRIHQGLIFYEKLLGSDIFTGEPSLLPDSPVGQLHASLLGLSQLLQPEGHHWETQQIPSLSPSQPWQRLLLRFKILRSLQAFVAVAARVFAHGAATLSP
T5 sequence (looked up) 2: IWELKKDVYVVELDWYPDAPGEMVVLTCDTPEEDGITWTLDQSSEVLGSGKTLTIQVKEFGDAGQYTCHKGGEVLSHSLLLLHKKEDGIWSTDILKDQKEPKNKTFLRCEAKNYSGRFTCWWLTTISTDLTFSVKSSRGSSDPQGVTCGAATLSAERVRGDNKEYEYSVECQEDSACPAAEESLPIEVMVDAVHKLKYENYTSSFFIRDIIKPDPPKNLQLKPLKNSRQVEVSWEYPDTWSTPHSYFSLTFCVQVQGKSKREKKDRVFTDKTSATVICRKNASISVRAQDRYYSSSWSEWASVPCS

[10] = molecular target: T5, human IL-23 protein (Sino Biological, …); assay: cell-based or functional assay
[11] = molecular target: T5, human IL-23 protein (Sino Biological, …); assay: SPR (Biacore 8K), antibody captured on Protein A chip, IL-23 as analyte
[12] = molecular target: T6, IL-23 (R&D Systems, 1290-IL-010) (UniProt Q9NPF7 20-189; P29460 23-328); assay: cell-based or functional assay
T6 sequence (looked up) 1: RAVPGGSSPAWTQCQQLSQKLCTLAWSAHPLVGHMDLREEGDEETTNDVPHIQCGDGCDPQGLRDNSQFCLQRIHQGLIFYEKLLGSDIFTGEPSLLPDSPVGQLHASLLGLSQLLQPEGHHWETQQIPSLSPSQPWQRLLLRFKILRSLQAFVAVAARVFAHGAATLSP
T6 sequence (looked up) 2: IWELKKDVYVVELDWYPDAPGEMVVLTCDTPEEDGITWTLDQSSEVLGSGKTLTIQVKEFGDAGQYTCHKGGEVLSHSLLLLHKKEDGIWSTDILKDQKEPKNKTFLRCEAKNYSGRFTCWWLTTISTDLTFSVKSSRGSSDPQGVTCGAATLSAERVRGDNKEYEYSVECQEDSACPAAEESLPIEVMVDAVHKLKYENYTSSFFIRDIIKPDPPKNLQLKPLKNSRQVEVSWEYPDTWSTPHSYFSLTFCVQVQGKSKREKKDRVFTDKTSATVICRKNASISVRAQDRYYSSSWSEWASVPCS

[13] = molecular target: T5, human IL-23 protein (Sino Biological, …); assay: ELISA, test sample coated, His-tagged IL-23 in solution
[14] = molecular target: T7, Human IL-36R protein (His + Avi Tag, biotinylation), Kactus IL1-HM4L2B (human, UniProt Q9HB29 20-335, biotinylated); assay: phage panning on biotinylated human IL-36R, clone ELISA
T7 construct: Screening antigen of the phage panning; also called biotinylated human IL-36R; human IL-36R antigen (screening antigen)
T7 sequence: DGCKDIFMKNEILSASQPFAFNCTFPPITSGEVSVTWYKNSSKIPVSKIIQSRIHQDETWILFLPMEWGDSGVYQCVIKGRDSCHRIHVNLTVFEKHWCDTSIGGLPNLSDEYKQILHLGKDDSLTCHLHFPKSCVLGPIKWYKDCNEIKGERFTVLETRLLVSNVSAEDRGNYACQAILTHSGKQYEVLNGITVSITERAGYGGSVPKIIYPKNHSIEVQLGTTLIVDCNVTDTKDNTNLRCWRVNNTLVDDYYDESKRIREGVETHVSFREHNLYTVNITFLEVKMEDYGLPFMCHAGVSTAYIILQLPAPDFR

Row | Binder | EC50 [1] [nM] | Maximum MFI [1] [MFI] | IL-8 secretion (A431), IL-36α, IC50 [2] [nM] | IL-8 secretion (A431), IL-36β, IC50 [2] [nM] | IL-8 secretion (A431), IL-36γ, IC50 [2] [nM] | proliferation of BaF3-mIL-23R cells induced by IL-23, IC50 [3] [nM] | DB-STAT3-Luc2 reporter gene system IC50 [4] [nM] | Kd [5] [nM] | koff [5] [s⁻¹] | kon [5] [M⁻¹ s⁻¹] | EC50 [6] [nM] | Kd [7] [nM] | koff [7] [s⁻¹] | kon [7] [M⁻¹ s⁻¹] | proliferation of BaF3-mIL-23R cells induced by IL-23, IC50 [8] [nM] | further results
1 | IL-36R-IL-23-01 (anti-IL-36R and anti-IL-23 bispecific antibody, VHH213_Hu07 on Hu29-19, Structure A) (bispecific antibody, human IgG1, kappa, L234A L235A, VHH fused by a (G4S)2 linker to the N-terminus of the heavy chain; IgG1 L234A/L235A) heavy: not shown light: DIVLTQSPDSLAVSLGERATINCRASESVDYYGISSMHWFQQKPGQPPKLLIYRASNLESGIPARFSGSGSRTDFTLTISSLQAEDVAVYYCQQANKDPYTFGGGTKVEIKRTVAAPSVFIFPPSDEQLKSGTASVVCLLNNFYPREAKVQWKVDNALQSGNSQESVTEQDSKDSTYSLSSTLTLSKADYEKHKVYACEVTHQGLSSPVTKSFNRGEC | 1.28 | 11600 | 0.54 | 0.2 | 0.06 | 0.39 | 7 | 0.023 | 5.97e-05 | 2.6e+06 | 1.21 | 6.47 | 0.000123 | 19100 | – | –
2 | IL-36R-IL-23-02 (anti-IL-36R and anti-IL-23 bispecific antibody, VHH162_Hu11 on Hu29-19, Structure A) (bispecific antibody, human IgG1, kappa, L234A L235A, VHH fused by a (G4S)2 linker to the N-terminus of the heavy chain; IgG1 L234A/L235A; also called IL-36R-1L-23-02) heavy: not shown light: DIVLTQSPDSLAVSLGERATINCRASESVDYYGISSMHWFQQKPGQPPKLLIYRASNLESGIPARFSGSGSRTDFTLTISSLQAEDVAVYYCQQANKDPYTFGGGTKVEIKRTVAAPSVFIFPPSDEQLKSGTASVVCLLNNFYPREAKVQWKVDNALQSGNSQESVTEQDSKDSTYSLSSTLTLSKADYEKHKVYACEVTHQGLSSPVTKSFNRGEC | 1.13 | 11400 | 1.63 | 0.74 | 0.21 | – | 8.8 | 0.0235 | 6.83e-05 | 2.9e+06 | 0.49 | 15.9 | 0.000146 | 9210 | 0.5 | –
3 | Hu29-19 (humanized anti-IL-23 antibody, hAb29VH5 and hAb29VL3) (antibody, human IgG1, kappa, L234A L235A, V domains shown) VH: QVTLKESGPVLVKPTETLTLTCTVSGFSLTNYAISWVRQPPGKGLEWLGVIWTGGGTNYNSGIKSRLTISKDNSKSQVVLTMTNMDPVDTARYYCVREGDYGSYAGAMDYWGQGTTVTVSS VL: DIVLTQSPDSLAVSLGERATINCRASESVDYYGISSMHWFQQKPGQPPKLLIYRASNLESGIPARFSGSGSRTDFTLTISSLQAEDVAVYYCQQANKDPYTFGGGTKVEIKR | – | – | – | – | – | 0.36 | 5.1 | 0.0106 | 6.26e-05 | 5.93e+06 | 0.55 | – | – | – | 0.43 | IC50 [9]: 0.478 nM; Activity in inhibiting proliferation of BaF3-IL-23R cells (IC50, nM) [10]: 0.194 nM; Kd [11]: 0.0151 nM; koff [11]: 4.08e-05 s⁻¹; kon [11]: 2.71e+06 M⁻¹ s⁻¹; IC50 for inhibiting IL-17 secretion [12]: 0.0177 nM; EC50 [13]: 1.11 nM
4 | VHH162 (camelid nanobody clone from the phage library) (VHH, As identified by panning and clone ELISA (phage or clone format not described)) VHH: DVQLVESGGGSVQPGGSLRLSCAASGYSYRTQCLGWYRQAPGKQREAVATISGGGTSTYYSDSVKGRFTISQDNARTTVYLSLTSLKPEDTATYYCAAGLSVLGSWCHGGSSYEYTYSGQGTQVTVSS | – | – | – | – | – | – | – | – | – | – | – | – | – | – | – | binding result [14]: binds

From patent EP4671282A1 (Jiangsu Hengrui Pharmaceuticals Co., Ltd., dated 2025)
